US6858210B1, “Therapeutic and diagnostic domain 1 β2GPI polypeptides and methods of using same” (La Jolla Pharmaceutical Co., priority 1998, dated 2005)

Experiments:
Normal human plasma = test: Surface plasmon resonance (BIAcore): control plasma/serum over immobilized β2GPI proteins; assay type: binding; conditions: serum of 55 controls
Excerpt: (§1) Reagents. CM5 chips, NHS and EDC and HBS-EP buffer were from BIAcore. Human haptoglobin (phenotyope 1—1), a protein containing the short consensus repeat motif found in β2GPI, was immobilized in a separate flow cell on the chip and used as a negative control. Recombinant β2GPI and domain-deletion mutants of β2GPI were expressed in Tn5 cells using the baculovirus protein expression system and purified from the supernatants by nickel-chelation affinity column. Iverson et al. (1998) Proc. Natl. Acad. Sci. USA 95:15542-15546. Normal human plasma samples were purchased (George King Biomedical) or obtained in-house. Patient plasma samples from individuals diagnosed with either primary or secondary (to lupus) antiphospholipid antibody syndrome were obtained from a number of clinical sources.
(§2) The 55 controls used in this study were derived from a heterogenous sample. Thirty control samples (15 male; 15 female; mean age 34 yrs, range 19-45 yrs) purchased from George King Bio-Medical (Overland Park, Kans.), 5 local volunteers (3 male, 2 female), 2 pooled commercial sources and 18 blood bank donors of unknown origin were included in the analysis. The patient samples were collected from several sources and included patients with histories of venous thrombosis, arterial occlusions, cerebrovascular occlusions, multiple miscarriages and thrombocytopenia. All patients included in the study had IgG antiphospholipid antibody level (GPL) levels>20 by internal assay.
Surface Plasmon Resonance. All experiments were performed using a BIAcore™ 2000 instrument at 25° C. with a flow rate of 10 μL/minute. Chip equilibration and binding studies were performed with degassed HBS-EP buffer, which consists of 0.01 M HEPES pH 7.4, 0.15 M NaCl, 3 mM EDTA and 0.005% (v/v) surfactant P20. Covalent coupling of protein ligands through their free amino groups to the CM5 chip was accomplished by flowing 40 μL of 0.05 M NHS/0.2M EDC over the chip to activate the chip, followed by exposure to the appropriate protein ligand. Recombinant β2GPI(His)6, domain-deletion mutants of β2GPI and haptoglobin were immobilized by flowing 50 μL of a 25 μg/mL solution in 10 mM acetate, (pH 4.8) over the NHS-activated CM5 chip. The excess reactive groups on the chip surface are then quenched with 40 μL of 1 M ethanoloamine, (pH 8.5). Human plasma samples (130 μL) were diluted 1:1 with HBS-EP, flowed over the β2GPI chip, and response values were collected for 780 seconds. The chips were regenerated between sample exposures with 80 μL of 0.1 M glycine-HCl (pH 2.1), 0.1 M NaCl. Since the approach to binding equilibrium was incomplete during the measurement period, the equilibrium binding value (Req) was determined by fitting the association curves to the following equation using the manufacturers software (BiaEvaluation version 2.2, Uppsala, Sweden) Rt=Req(I−e^−ks(t−t0))+R0 where Rt is the measured BIAcore response at time t, Req is the equilibrium plateau response, t is time, t0 is initial time, k, is an apparent association constant (ks=kaC+kdis, where ka is the association constant, C is the analyte concentration and kdis is the dissociation constant), and R0 is a response offset. In some experiments total IgG fractions from human plasma samples were obtained from binding to and acid elution from protein G. The plasma remaining after binding to protein G was remixed with fresh protein G beads and isolated as IgG-stripped plasma. […]

APS patient plasma = test: Surface plasmon resonance (BIAcore): APS patient plasma/serum over immobilized β2GPI proteins; assay type: binding, human; parameters: key: Req = fitted equilibrium plateau BIAcore response
Excerpt: as §1, §2
Total IgG fraction was isolated from plasma using Immunopure Plus protein G agarose beads and Immunopure IgG binding and elution buffers according to the manufacturers recommendation (Pierce).
Surface Plasmon Resonance. All experiments were performed using a BIAcore™ 2000 instrument at 25° C. with a flow rate of 10 μL/minute. Chip equilibration and binding studies were performed with degassed HBS-EP buffer, which consists of 0.01 M HEPES pH 7.4, 0.15 M NaCl, 3 mM EDTA and 0.005% (v/v) surfactant P20. Covalent coupling of protein ligands through their free amino groups to the CM5 chip was accomplished by flowing 40 μL of 0.05 M NHS/0.2M EDC over the chip to activate the chip, followed by exposure to the appropriate protein ligand. Recombinant β2GPI(His)6, domain-deletion mutants of β2GPI and haptoglobin were immobilized by flowing 50 μL of a 25 μg/mL solution in 10 mM acetate, (pH 4.8) over the NHS-activated CM5 chip. The excess reactive groups on the chip surface are then quenched with 40 μL of 1 M ethanoloamine, (pH 8.5). Human plasma samples (130 μL) were diluted 1:1 with HBS-EP, flowed over the β2GPI chip, and response values were collected for 780 seconds. The chips were regenerated between sample exposures with 80 μL of 0.1 M glycine-HCl (pH 2.1), 0.1 M NaCl. Since the approach to binding equilibrium was incomplete during the measurement period, the equilibrium binding value (Req) was determined by fitting the association curves to the following equation using the manufacturers software (BiaEvaluation version 2.2, Uppsala, Sweden) Rt=Req(I−e^−ks(t−t0))+R0 where Rt is the measured BIAcore response at time t, Req is the equilibrium plateau response, t is time, t0 is initial time, k, is an apparent association constant (ks=kaC+kdis, where ka is the association constant, C is the analyte concentration and kdis is the dissociation constant), and R0 is a response offset. In some experiments total IgG fractions from human plasma samples were obtained from binding to and acid elution from protein G. The plasma remaining after binding to protein G was remixed with fresh protein G beads and isolated as IgG-stripped plasma. Neutralized IgG preparations and IgG-stripped plasma diluted 1:1 with buffer were flowed over the β2GPI chip as described above. Results and Discussion

B1: -2345: recombinant β2GPI deletion mutant with domains 2-5 (protein)
chain: GRTPRVCPFAGILENGAVRYTTFEYPNTISFSCNTGFYLNGADSAKCTEEGKWSPELPVCAPIICPPPSIPTFATLRVYKPSAGNNSLYRDTAVFECLPQHAMFGNDTITCTTHGNWTKLPECREVKCPFPSRPDNGFVNYPAKPTLYYKDKATFGCHDGYSLDGPEEIECTKLGNWSAMPSCKASCKLPVKKATVVYQGERVKIQEKFKNGMLHGDKVSFFCKNKEKKCSYTEDAQCIDGTIEVPKCFKEHSSLAFWKTDASDVKPCGHHHHHH
- Median Req (Normal human plasma): 103
- Req (mean ± sem) (Normal human plasma; diluted 1:1): 160 ± 26
- Req (APS patient plasma; 43/106 APS patients with negligible interaction): < 9
- BIAcore Req (APS patient plasma; non-selective patient 6117, IgG-stripped Plasma (1:2)): 0
- BIAcore Req (APS patient plasma; non-selective patient 6117, Total IgG (1:4)): 79
- BIAcore Req (APS patient plasma; non-selective patient 6117, Whole Plasma (1:2)): 386
- BIAcore Req (APS patient plasma; non-selective patient 6194, IgG-stripped Plasma (1:2)): 0
- BIAcore Req (APS patient plasma; non-selective patient 6194, Total IgG (1:4)): 688
- BIAcore Req (APS patient plasma; non-selective patient 6194, Whole Plasma (1:2)): 3197
- BIAcore Req (APS patient plasma; non-selective patient 6611, IgG-stripped Plasma (1:2)): 0
- BIAcore Req (APS patient plasma; non-selective patient 6611, Total IgG (1:4)): 177
- BIAcore Req (APS patient plasma; non-selective patient 6611, Whole Plasma (1:2)): 1002
- BIAcore Req (APS patient plasma; non-selective patient 6627, IgG-stripped Plasma (1:2)): 0
- BIAcore Req (APS patient plasma; non-selective patient 6627, Total IgG (1:4)): 182
- BIAcore Req (APS patient plasma; non-selective patient 6627, Whole Plasma (1:2)): 549
- BIAcore Req (APS patient plasma; non-selective patient 6649, IgG-stripped Plasma (1:2)): 0
- BIAcore Req (APS patient plasma; non-selective patient 6649, Total IgG (1:4)): 127
- BIAcore Req (APS patient plasma; non-selective patient 6649, Whole Plasma (1:2)): 553
- BIAcore Req (APS patient plasma; non-selective patient 7013, IgG-stripped Plasma (1:2)): 0
- BIAcore Req (APS patient plasma; non-selective patient 7013, Total IgG (1:4)): 75
- BIAcore Req (APS patient plasma; non-selective patient 7013, Whole Plasma (1:2)): 167
- BIAcore Req (APS patient plasma; patient 6207, IgG-stripped Plasma (1:2)): 0
- BIAcore Req (APS patient plasma; patient 6207, Total IgG (1:4)): 0
- BIAcore Req (APS patient plasma; patient 6207, Whole Plasma (1:2)): 19
- BIAcore Req (APS patient plasma; patient 6501, IgG-stripped Plasma (1:2)): 0
- BIAcore Req (APS patient plasma; patient 6501, Total IgG (1:4)): 0
- BIAcore Req (APS patient plasma; patient 6501, Whole Plasma (1:2)): 333
- BIAcore Req (APS patient plasma; patient 6515, IgG-stripped Plasma (1:2)): 0
- BIAcore Req (APS patient plasma; patient 6515, Total IgG (1:4)): 0
- BIAcore Req (APS patient plasma; patient 6515, Whole Plasma (1:2)): 259
- BIAcore Req (APS patient plasma; patient 6601, IgG-stripped Plasma (1:2)): 0
- BIAcore Req (APS patient plasma; patient 6601, Total IgG (1:4)): 0
- BIAcore Req (APS patient plasma; patient 6601, Whole Plasma (1:2)): 84
- BIAcore Req (APS patient plasma; patient 6626, IgG-stripped Plasma (1:2)): 0
- BIAcore Req (APS patient plasma; patient 6626, Total IgG (1:4)): 0
- BIAcore Req (APS patient plasma; patient 6626, Whole Plasma (1:2)): 37
- BIAcore Req (APS patient plasma; patient 6642, IgG-stripped Plasma (1:2)): 0
- BIAcore Req (APS patient plasma; patient 6642, Total IgG (1:4)): 0
- BIAcore Req (APS patient plasma; patient 6642, Whole Plasma (1:2)): 8
- BIAcore Req (APS patient plasma; patient 6701, IgG-stripped Plasma (1:2)): 0
- BIAcore Req (APS patient plasma; patient 6701, Total IgG (1:4)): 0
- BIAcore Req (APS patient plasma; patient 6701, Whole Plasma (1:2)): 199
- BIAcore Req (APS patient plasma; patient 6703, IgG-stripped Plasma (1:2)): 0
- BIAcore Req (APS patient plasma; patient 6703, Total IgG (1:4)): 0
- BIAcore Req (APS patient plasma; patient 6703, Whole Plasma (1:2)): 65
- BIAcore Req (APS patient plasma; patient 7015, IgG-stripped Plasma (1:2)): 0
- BIAcore Req (APS patient plasma; patient 7015, Total IgG (1:4)): 0
- BIAcore Req (APS patient plasma; patient 7015, Whole Plasma (1:2)): 158
- BIAcore Req (APS patient plasma; patient 7201, IgG-stripped Plasma (1:2)): 0
- BIAcore Req (APS patient plasma; patient 7201, Total IgG (1:4)): 0
- BIAcore Req (APS patient plasma; patient 7201, Whole Plasma (1:2)): 0
- Median Req (APS patient plasma; serum of 106 APS patients (GPL ≧ 20)): 24
- Req (mean ± sem) (APS patient plasma; serum of 106 APS patients (GPL ≧ 20), diluted 1:1): 158 ± 36
